PMC6503952, “Nuclear actin interactome analysis links actin to KAT14 histone acetyl transferase and mRNA splicing” (Journal of Cell Science, 2019)

Target: Rabbit skeletal muscle actin (rabbit, UniProt P68135 1-377)
Assay: pull-down; purified His–KAT14 or His–GST (from a lysate) held on Ni-NTA agarose beads, washed with up to 500 mM NaCl, then incubated with a 4-fold amount of rabbit skeletal muscle actin in G-buffer (5 mM Tris-HCl pH 7.5, 0.2 mM ATP, 0.2 mM CaCl2, 0.5 mM DTT) for 3 h at +4°C; western blot
Conditions: both partners purified

B1: Recombinant human His-KAT14 (enzyme)
chain: MDSSIHLSSLISRHDDEATRTSTSEGLEEGEVEGETLLIVESEDQASVDLSHDQSGDSLNSDEGDVSWMEEQLSYFCDKCQKWIPASQLREQLSYLKGDNFFRFTCSDCSADGKEQYERLKLTWQQVVMLAMYNLSLEGSGRQGYFRWKEDICAFIEKHWTFLLGNRKKTSTWWSTVAGCLSVGSPMYFRSGAQEFGEPGWWKLVHNKPPTMKPEGEKLSASTLKIKAASKPTLDPIITVEGLRKRASRNPVESAMELKEKRSRTQEAKDIRRAQKEAAGFLDRSTSSTPVKFISRGRRPDVILEKGEVIDFSSLSSSDRTPLTSPSPSPSLDFSAPGTPASHSATPSLLSEADLIPDVMPPQALFHDDDEMEGDGVIDPGMEYVPPPAGSVASGPVVGVRKKVRGPEQIKQEVESEEEKPDRMDIDSEDTDSNTSLQTRAREKRKPQLEKDTKPKEPRYTPVSIYEEKLLLKRLEACPGAVAMTPEARRLKRKLIVRQAKRDRGLPLFDLDQVVNAALLLVDGIYGAKEGGISRLPAGQATYRTTCQDFRILDRYQTSLPSRKGFRHQTTKFLYRLVGSEDMAVDQSIVSPYTSRILKPYIRRDYETKPPKLQLLSQIRSHLHRSDPHWTPEPDAPLDYCYVRPNHIPTINSMCQEFFWPGIDLSECLQYPDFSVVVLYKKVIIAFGFMVPDVKYNEAYISFLFVHPEWRRAGIATFMIYHLIQTCMGKDVTLHVSASNPAMLLYQKFGFKTEEYVLDFYDKYYPLESTECKHAFFLRLRR
notes: KAT14, human; also called His-tagged KAT14; source: Sf9 (MultiBac baculovirus), purified (Ni-NTA, Superdex 200)
  binding result: binds
